Measurements published in patent US20260234121A1, “DERIVATIVES, IMMUNOGENS, AND ANTIBODIES AND USE OF THE SAME IN DETECTION OF ECSTASY-CLASS COMPOUNDS” (Siemens Healthcare Diagnostics Inc., priority 2023, published 2026).

B1: 178K 3C8 mAb: mouse monoclonal antibody raised against E1-KLH (56); IgG1, κ; heavy chain SEQ ID NO 88, light chain SEQ ID NO 112 (antibody)
heavy: MNFGLSLIFLVLILKGVQCEVQLVESGGDLVKPGESLKLACAASGFTFSRDVMSWVRQTPDKRLEWVATISSNGIYIYYTDSVKGRFTISRDNAKNTLYLQLSSLRSEDTAVYYCSRGNNLDSWGQGTTLTVSSAKTTPPSVYPLAPGSAAQTNSMVTLGCLVKGYFPEPVTVTWNSGSLSSGVHTFPAVLQSDLYTLSSSVTVPSSTWPSETVTCNVAHPASSTKVDKKIVPRDCGCKPCICTVPEVSSVFIFPPKPKDVLTITLTPKVTCVVVDISKDDPEVQFSWFVDDVEVHTAQTQPREEQFNSTFRSVSELPIMHQDWLNGKEFKCRVNSAAFPAPIEKTISKTKGRPKAPQVYTIPPPKEQMAKDKVSLTCMITDFFPEDITVEWQWNGQPAENYKNTQPIMDTDGSYFIYSKLNVQKSNWEAGNTFTCSVLHEGLHNHHTEKSLSHSPGK
light: MRFSAQLLGLLVLWIPGSTADIVMTQAAFSNPVTLGTSASISCRSSKSLLHRNGITYLYWYLQKPGQSPQLLIYQMSNLASGVSDRFSSSGSGTDFTLRISRVEAEDVGVYFCGQDLELPYSFGGGTKLEIKRADAAPTVSIFPPSSEQLTSGGASVVCFLNNFYPKDINVKWKIDGSERQNGVLNSWTDQDSKDSTYSMSSTLTLTKDEYERHNSYTCEATHKTSTSPIVKSFNRNEC
B2: 178F 4C12 mAb: mouse monoclonal antibody raised against E1-KLH (56); IgG1, κ; heavy chain SEQ ID NO 80, light chain SEQ ID NO 104 (antibody)
heavy: MNFGLSLIFLALILKGVQCEVQLVESGGDLVKPGGSLKLSCAASGFTFSRFVMSWVRQTPDKRLEWVATISSGGIHTYYLDSVKGRVTIFRDNAKNTLYLQMSSLESEDTAMYYCAAGNALDYWGQGTSVTVSSAKTTAPSVYPLAPVCGGTTGSSVTLGCLVKGYFPEPVTLTWNSGSLSSGVHTFPALLQSGLYTLSSSVTVTSNTWPSQTITCNVAHPASSTKVDKKIEPRVPITQNPCPPLKECPPCAAPDLLGGPSVFIFPPKIKDVLMISLSPMVTCVVVDVSEDDPDVQISWFVNNVEVHTAQTQTHREDYNSTLRVVSALPIQHQDWMSGKEFKCKVNNRALPSPIEKTISKPRGPVRAPQVYVLPPPAEEMTKKEFSLTCMITGFLPAEIAVDWTSNGRTEQNYKNTATVLDSDGSYFMYSKLRVQKSTWERGSLFACSVVHEGLHNHLTTKTISRSLGK
light: MRFSAQLLGLLVLWIPGSTADIVMTQAAFSNPVTLGTSGSVSCRSSKSLLHSNGITYLYWYLQKPGQSPQLLIYQMSNLASGVPDRFSSTGSGTDFTLRISRVEAEDVGVYYCGQDLELPYSFGSGTKLEIKRADAAPTVSIFPPSSEQLTSGGASVVCFLNNFYPKDINVKWKIDGSERQNGVLNSWTDQDSKDSTYSMSSTLTLTKDEYERHNSYTCEATHKTSTSPIVKSFNRNEC
B3: 178K 5B11 mAb: mouse monoclonal antibody raised against E1-KLH (56); IgG1, κ; heavy chain SEQ ID NO 90, light chain SEQ ID NO 114 (antibody)
heavy: MNFGLSLIFLALILKGVQCEVQLVESGGDLVKPGGSLKLSCAASGFSFSAYVMSWVRQTPDKRLEWVATISRGGSYIYYPDSVKGRFTISRDDARDTLYLQMTSLKSEDTAVYYCSGGNNLDYWGQGTALTVSSAKTTPPSVYPLAPGSAAQTNSMVTLGCLVKGYFPEPVTVTWNSGSLSSGVHTFPAVLQSDLYTLSSSVTVPSSTWPSETVTCNVAHPASSTKVDKKIVPRDCGCKPCICTVPEVSSVFIFPPKPKDVLTITLTPKVTCVVVDISKDDPEVQFSWFVDDVEVHTAQTQPREEQFNSTFRSVSELPIMHQDWLNGKEFKCRVNSAAFPAPIEKTISKTKGRPKAPQVYTIPPPKEQMAKDKVSLTCMITDFFPEDITVEWQWNGQPAENYKNTQPIMDTDGSYFIYSKLNVQKSNWEAGNTFTCSVLHEGLHNHHTEKSLSHSPGK
light: MRFSAQLLGLLVLWIPGSTADIVMTQAAFSNPVTLGTSASISCRSSKSLLQINGITYLYWYLQKPGQSPQLLIYQMSNLASGVPDRFSSSGSGTDFTLRISRVEAEDVGVYYCGQDLELPYTFGGGTKLEIKRADAAPTVSIFPPSSEQLTSGGASVVCFLNNFYPKDINVKWKIDGSERQNGVLNSWTDQDSKDSTYSMSSTLTLTKDEYERHNSYTCEATHKTSTSPIVKSFNRNEC
B4: 178H 2A7 mAb: mouse monoclonal antibody raised against E1-KLH (56); IgG1, κ; heavy chain SEQ ID NO 82, light chain SEQ ID NO 106 (antibody)
heavy: MNFGLSLISLALILKGVQCEVHLVESGGDLVKPGGSLKLSCAASGFTFSSYVMSWVRQTPDKRLEWIATISYGGGHYTYYPDSVKGRFTISRDNAKNTLYLQMNSLKSDDTAMYYCSSGNALNYWGQGTSVTVSSAKTTPPSVYPLAPGSAAQTNSMVTLGCLVKGYFPEPVTVTWNSGSLSSGVHTFPAVLQSDLYTLSSSVTVPSSTWPSQTVTCNVAHPASSTKVDKKIVPRDCGCKPCICTVPEVSSVFIFPPKPKDVLTITLTPKVTCVVVDISKDDPEVQFSWFVDDVEVHTAQTKPREEQINSTFRSVSELPIMHQDWLNGKEFKCRVNSAAFPAPIEKTISKTKGRPKAPQVYTIPPPKEQMAKDKVSLTCMITNFFPEDITVEWQWNGQPAENYKNTQPIMDTDGSYFVYSKLNVQKSNWEAGNTFTCSVLHEGLHNHHTEKSLSHSPGK
light: MRFSAQLLGLLVLWIPGSTADIVMTQAAFSNPVTLGTSASISCRSSKSLLHYTGITYLYWYLQKPGQSPQLLIYQMSNLASGVPDRFSSSGSGTDFTLRISRVEAEDVGVYYCGQDLELPYSFGSGTKLEIKRADAAPTVSIFPPSSEQLTSGGASVVCFLNNFYPKDINVKWKIDGSERQNGVLNSWTDQDSKDSTYSMSSTLTLTKDEYERHNSYTCEATHKTSTSPIVKSFNRNEC
B5: 178F 4H5 mAb: mouse monoclonal antibody raised against E1-KLH (56); IgG2a, κ; heavy chain SEQ ID NO 81, light chain SEQ ID NO 105 (antibody)
heavy: MNFGLSLIFLALILKGVQCEVQLVESGGDLVQPGGSLILSCVASGFTFRNYVMSWIRQTPDKRLEWVATINSGGSYTYYPDTVKGRFTISRDNAKSTLYLQMSSLKSEDTAMYYCASGNFLDYWGQGTSVTVSSAKTTPPSVYPLAPGSAAQTNSMVTLGCLVKGYFPEPVTVTWNSGSLSSGVHTFPAVLQSDLYTLSSSVTVPSSTWPSQTVTCNVAHPASSTKVDKKIVPRDCGCKPCICTVPEVSSVFIFPPKPKDVLTITLTPKVTCVVVDISKDDPEVQFSWFVDDVEVHTAQTKPREEQINSTFRSVSELPIMHQDWLNGKEFKCRVNSAAFPAPIEKTISKTKGRPKAPQVYTIPPPKEQMAKDKVSLTCMITNFFPEDITVEWQWNGQPAENYKNTQPIMDTDGSYFVYSKLNVQKSNWEAGNTFTCSVLHEGLHNHHTEKSLSHSPGK
light: MRFSAQLLGLLVLWIPGSTADIVMTQAAFSNPVTLGTSASISCRSSKSLLNSYGITYLYWYLQKPGQSPQLLIYQMSNLASGVPDRFSSSGSGTDFTLRISRVEAEDVGVYYCGQDLELPYTFGSGTQLEIKRADAAPTVSIFPPSSEQLTSGGASVVCFLNNFYPKDINVKWKIDGSERQNGVLNSWTDQDSKDSTYSMSSTLTLTKDEYERHNSYTCEATHKTSTSPIVKSFNRNEC

Assays:
[1] = Prototype EMIT ecstasy assay, cross-reactivity with methamphetamine; assay type: biochemical; conditions: conjugate Compound 58; negative urine pool
[2] = Prototype EMIT ecstasy assay, cross-reactivity with amphetamine; assay type: biochemical; conditions: conjugate Compound 58; negative urine pool
E1-OVA (55) = assay: ELISA binding of hybridoma supernatant to E1-OVA (55) coated plates, without inhibitor; conditions: hybridoma supernatant mixed with PBS alone
Description: All ELISA steps were performed at rt. Wells of a Nunc Maxi-Sorp™ flat-bottom ELISA plates (ThermoFisher Scientific, Waltham, MA) were coated with 50 μL E1-OVA (55), E2-OVA (65), and E3-OVA (72) at a concentration of 1 μg/mL in PBS for 1 h. The plates were flicked dried and remaining binding sites were blocked with 200 μL per well of blocking solution (0.5% casein, 0.05% (v/v) Tween 20 in PBS) for one hour. Plates were washed six times with MilliQ water containing 0.05% (v/v) Tween 20 on Biotek 405 LS plate washer equipped with microplate Biostacker 3 (Biotek, Winooski, VT). 50 μL of serially diluted antibody samples (serial dilutions of serum, hybridoma supernatant, or monoclonal antibodies in PBS) were added to each well and incubated for one hour. Unbound antibodies were removed by washing as described above, and 50 μL of secondary goat anti-rabbit IgG HRP or goat anti-mouse IgG (Fc)-HRP conjugate (ThermoFisher Scientific, USA), diluted 1:3,000 in the blocking solution was added to each well for detection bound rabbit or mouse antibody, respectively. Plates were incubated for one hour, washed and 100 μL of TMB substrate (Moss, Pasadena, MD) was added for 15 min to determine bound peroxidase. Optical density (OD) of the samples at 650 nm was measured using an ELISA plate reader (Molecular Devices LLC., San Jose, CA). The titer of each serum sample was designated as the maximum dilution that yielded at least twice the absorbance of the same dilution of the nonimmune control serum.
The supernatants were screened in a competitive ELISA for the presence of anti-ecstasy compound monoclonal antibodies (mAbs) as follows. 25 μL of the hybridoma supernatant was mixed with equal volume of PBS alone or containing 20 μg/mL inhibitor (MDA or MDMA) were incubated for 1 h in the wells of E1-OVA (55) coated ELISA plates. The plates were washed and the presence of bound mAbs were detected using goat anti-mouse IgG (Fc)-HRP conjugate and TMB substrate as described above. The level of inhibition of mAb/E1-OVA (55) binding in the presence of the inhibitor was estimated using a Percent (%) Inhibition calculated by the below formula:
[formula] • where “OD650 nm w/o Inhibitor” is the binding response of the antibody sample diluted in PBS alone (with no inhibitor), and the “OD650 nm with Inhibitor” is the binding response of the same antibody sample in the presence of 10 μg/mL of inhibitor (i.e., MDA or MDMA). […]

Row | Molecule | Concentrations (μg/mL) of Structurally Related Compounds Equivalent to 500 ng/mL MDMA Cutoffs, (+/−) mAmph [1] | Concentrations (μg/mL) of Structurally Related Compounds Equivalent to 500 ng/mL MDMA Cutoffs, (+/−) Amph [2] | E1-OVA (55) Binding, OD650 nm w/o inhib (E1-OVA (55))
1 | B1 | 50 µg/mL | 30 µg/mL | 2.389 OD650 nm
2 | B2 | 40 to 50 µg/mL | 40 to 45 µg/mL | 2.836 OD650 nm
3 | B3 | 30 to 50 µg/mL | 25 to 30 µg/mL | 2.893 OD650 nm
4 | B4 | 30 to 40 µg/mL | 40 to 45 µg/mL | 2.900 OD650 nm
5 | B5 | 30 to 40 µg/mL | 30 µg/mL | 2.948 OD650 nm
